Laboratory results published in paper PMC10397247.

Columns and labels:
4H607-bA = biological target: T1, 4H607-bA; experiment: two-hybrid library CCNG1;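 note: natural log of median RNA to DNA barcode read ratio; higher means stronger binding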
T1 chain: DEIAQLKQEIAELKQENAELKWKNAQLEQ

4H687-bA = biological target: T2, 4H687-bA; experiment: two-hybrid library CCNG1;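 note: natural log of median RNA to DNA barcode read ratio; higher means stronger binding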
T2 chain: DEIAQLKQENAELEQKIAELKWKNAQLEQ

4H883-bA = biological target: T3, 4H883-bA; experiment: two-hybrid library CCNG1;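 note: natural log of median RNA to DNA barcode read ratio; higher means stronger binding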
T3 chain: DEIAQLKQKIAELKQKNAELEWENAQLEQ

4H918-bA = biological target: T4, 4H918-bA; experiment: two-hybrid library CCNG1;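 note: natural log of median RNA to DNA barcode read ratio; higher means stronger binding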
T4 chain: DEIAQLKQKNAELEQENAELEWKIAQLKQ

4H568-bA = biological target: T5, 4H568-bA; experiment: two-hybrid library CCNG1;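 note: natural log of median RNA to DNA barcode read ratio; higher means stronger binding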
T5 chain: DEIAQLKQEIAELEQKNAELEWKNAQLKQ

4H717-bA = biological target: T6, 4H717-bA; experiment: two-hybrid library CCNG1;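 note: natural log of median RNA to DNA barcode read ratio; higher means stronger binding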
T6 chain: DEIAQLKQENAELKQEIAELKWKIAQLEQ

4H953-bA = biological target: T7, 4H953-bA; experiment: two-hybrid library CCNG1
T7 chain: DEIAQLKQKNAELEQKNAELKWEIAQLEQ

4H72-bA = biological target: T8, 4H72-bA; experiment: two-hybrid library CCNG1
T8 chain: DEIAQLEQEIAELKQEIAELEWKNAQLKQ

4H454-bA = biological target: T9, 4H454-bA; experiment: two-hybrid library CCNG1
T9 chain: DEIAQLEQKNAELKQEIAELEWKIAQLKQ

4H908-bA = biological target: T10, 4H908-bA; experiment: two-hybrid library CCNG1
T10 chain: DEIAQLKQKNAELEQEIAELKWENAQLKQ

4H797-bA = biological target: T11, 4H797-bA; experiment: two-hybrid library CCNG1
T11 chain: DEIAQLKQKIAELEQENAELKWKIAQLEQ

4H754-bA = biological target: T12, 4H754-bA; experiment: two-hybrid library CCNG1
T12 chain: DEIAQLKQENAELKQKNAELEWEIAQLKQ

4H967-bA = biological target: T13, 4H967-bA; experiment: two-hybrid library CCNG1
T13 chain: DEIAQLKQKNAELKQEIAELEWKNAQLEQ

4H324-AA = biological target: T14, 4H324-AA; experiment: two-hybrid library CCmax; settings: mean of both orientations
T14 chain: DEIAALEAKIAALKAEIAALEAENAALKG

4H63-AA = biological target: T15, 4H63-AA; experiment: two-hybrid library CCmax; settings: mean of both orientations
T15 chain: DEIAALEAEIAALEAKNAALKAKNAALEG

4H341-AA = biological target: T16, 4H341-AA; experiment: two-hybrid library CCmax; settings: mean of both orientations
T16 chain: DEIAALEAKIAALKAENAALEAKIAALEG

4H446-AA = biological target: T17, 4H446-AA; experiment: two-hybrid library CCmax; settings: mean of both orientations
T17 chain: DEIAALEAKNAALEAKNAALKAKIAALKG

4H3619-AA = biological target: T18, 4H3619-AA; experiment: two-hybrid library CCmax; settings: mean of both orientations
T18 chain: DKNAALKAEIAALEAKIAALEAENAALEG

4H3629-AA = biological target: T19, 4H3629-AA; experiment: two-hybrid library CCmax; settings: mean of both orientations
T19 chain: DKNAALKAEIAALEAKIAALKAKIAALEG

4H3777-AA = biological target: T20, 4H3777-AA; experiment: two-hybrid library CCmax; settings: mean of both orientations
T20 chain: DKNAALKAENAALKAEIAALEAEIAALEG

4H3974-AA = biological target: T21, 4H3974-AA; experiment: two-hybrid library CCmax; settings: mean of both orientations
T21 chain: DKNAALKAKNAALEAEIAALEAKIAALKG

4H432-AA = biological target: T22, 4H432-AA; experiment: two-hybrid library CCmax; settings: mean of both orientations
T22 chain: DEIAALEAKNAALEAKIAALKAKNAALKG

4H380-AA = biological target: T23, 4H380-AA; experiment: two-hybrid library CCmax; settings: mean of both orientations
T23 chain: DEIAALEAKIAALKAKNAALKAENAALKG

4H3449-AA = biological target: T24, 4H3449-AA; experiment: two-hybrid library CCmax; settings: mean of both orientations
T24 chain: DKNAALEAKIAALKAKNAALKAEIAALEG

4H3094-AA = biological target: T25, 4H3094-AA; experiment: two-hybrid library CCmax
T25 chain: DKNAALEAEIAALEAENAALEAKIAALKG

4H3915-AA = biological target: T26, 4H3915-AA; experiment: two-hybrid library CCmax
T26 chain: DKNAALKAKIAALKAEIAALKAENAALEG

4H3595-AA = biological target: T27, 4H3595-AA; experiment: two-hybrid library CCmax; settings: mean of both orientations
T27 chain: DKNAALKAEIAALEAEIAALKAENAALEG

4H3782-AA = biological target: T28, 4H3782-AA; experiment: two-hybrid library CCmax; settings: mean of both orientations
T28 chain: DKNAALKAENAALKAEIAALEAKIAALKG

4H483-AA = biological target: T29, 4H483-AA; experiment: two-hybrid library CCmax; settings: mean of both orientations
T29 chain: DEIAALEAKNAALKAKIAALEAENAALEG

4H464-AA = biological target: T30, 4H464-AA; experiment: two-hybrid library CCmax; settings: mean of both orientations
T30 chain: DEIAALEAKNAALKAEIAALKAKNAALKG

4H3969-AA = biological target: T31, 4H3969-AA; experiment: two-hybrid library CCmax; settings: mean of both orientations
T31 chain: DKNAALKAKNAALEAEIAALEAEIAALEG

4H3414-AA = biological target: T32, 4H3414-AA; experiment: two-hybrid library CCmax
T32 chain: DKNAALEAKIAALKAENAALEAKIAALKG

4H3939-AA = biological target: T33, 4H3939-AA; experiment: two-hybrid library CCmax; settings: mean of both orientations
T33 chain: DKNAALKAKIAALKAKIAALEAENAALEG

APC9291-AA = biological target: T34, APC9291-AA; experiment: two-hybrid library CCmax; settings: mean of both orientations
T34 chain: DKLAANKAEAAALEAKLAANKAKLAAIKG

APC5531-AA = biological target: T35, APC5531-AA; experiment: two-hybrid library CCmax; settings: mean of both orientations
T35 chain: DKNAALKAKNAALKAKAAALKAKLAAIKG

APC542-AA = biological target: T36, APC542-AA; experiment: two-hybrid library CCmax; settings: mean of both orientations
T36 chain: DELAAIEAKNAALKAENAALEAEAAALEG

APC9806-AA = biological target: T37, APC9806-AA; experiment: two-hybrid library CCmax; settings: mean of both orientations
T37 chain: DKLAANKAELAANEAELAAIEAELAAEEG

APC6088-AA = biological target: T38, APC6088-AA; experiment: two-hybrid library CCmax; settings: mean of both orientations
T38 chain: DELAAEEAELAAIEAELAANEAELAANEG

APC5009-AA = biological target: T39, APC5009-AA; experiment: two-hybrid library CCmax
T39 chain: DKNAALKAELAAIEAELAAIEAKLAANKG

APC8516-AA = biological target: T40, APC8516-AA; experiment: two-hybrid library CCmax; settings: mean of both orientations
T40 chain: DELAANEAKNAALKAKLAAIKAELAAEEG

APC8401-AA = biological target: T41, APC8401-AA; experiment: two-hybrid library CCmax; settings: mean of both orientations
T41 chain: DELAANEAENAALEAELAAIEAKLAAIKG

APC9182-AA = biological target: T42, APC9182-AA; experiment: two-hybrid library CCmax; settings: mean of both orientations
T42 chain: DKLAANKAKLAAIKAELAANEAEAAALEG

APC9141-AA = biological target: T43, APC9141-AA; experiment: two-hybrid library CCmax; settings: mean of both orientations
T43 chain: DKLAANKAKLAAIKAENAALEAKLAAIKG

APC7524-AA = biological target: T44, APC7524-AA; experiment: two-hybrid library CCmax; settings: mean of both orientations
T44 chain: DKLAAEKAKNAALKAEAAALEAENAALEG

B1: 4H454-bA (peptide)
chain: DEIAQLEQKNAELKQEIAELEWKIAQLKQ
- interaction score (4H607-bA): -0.773
- interaction score (4H687-bA): 1.48
- interaction score (4H883-bA): -0.0808
- interaction score (4H918-bA): -0.912
- interaction score (4H568-bA): -0.589
- interaction score (4H717-bA): 0.262
- interaction score (4H953-bA): 0.62
- interaction score (4H72-bA): -0.678
- interaction score (4H454-bA): 1.86
- interaction score (4H908-bA): -0.182
- interaction score (4H797-bA): -1.06
- interaction score (4H754-bA): -0.711
- interaction score (4H967-bA): -0.131

B2: 4H3094-AA (peptide)
chain: DKNAALEAEIAALEAENAALEAKIAALKG
- interaction score (4H324-AA): -0.623
- interaction score (4H63-AA): -0.753
- interaction score (4H341-AA): 1.64
- interaction score (4H446-AA): -0.811
- interaction score (4H3619-AA): -1.6
- interaction score (4H3629-AA): -0.24
- interaction score (4H3777-AA): -0.696
- interaction score (4H3974-AA): -0.861
- interaction score (4H432-AA): 0.441
- interaction score (4H380-AA): 1.51
- interaction score (4H3449-AA): 2.52
- interaction score (4H3094-AA): -0.802
- interaction score (4H3915-AA): -0.623

B3: 4H3414-AA (peptide)
chain: DKNAALEAKIAALKAENAALEAKIAALKG
- interaction score (4H63-AA): -0.187
- interaction score (4H446-AA): -0.818
- interaction score (4H3595-AA): -1.09
- interaction score (4H3629-AA): 0.922
- interaction score (4H3782-AA): -1.23
- interaction score (4H483-AA): 0.796
- interaction score (4H464-AA): 1.47
- interaction score (4H380-AA): -0.842
- interaction score (4H3969-AA): -1.31
- interaction score (4H3414-AA): -0.215
- interaction score (4H3939-AA): -1.42

B4: APC5009-AA (peptide)
chain: DKNAALKAELAAIEAELAAIEAKLAANKG
- interaction score (APC9291-AA): -1.51
- interaction score (APC5531-AA): -0.726
- interaction score (APC542-AA): -1.44
- interaction score (APC9806-AA): -1.58
- interaction score (APC6088-AA): -1.37
- interaction score (APC5009-AA): -1.19
- interaction score (APC8516-AA): -1.31
- interaction score (APC8401-AA): -1.26
- interaction score (APC9182-AA): -1.29
- interaction score (APC9141-AA): -1.42
- interaction score (APC7524-AA): -1.47
